Holding throughout (test): cell_activity
The subject of data set [1] is HprCH3.3/HprCH3.4 heterodimer chain1: KNSHQS/QRRDI/42A43L (Y33H,42A,43L); chain2: KNTHQS/RYSNN/72T (S32T,Y33H,Q44R,R68Y,R70S,72T,D75N,I77N). The note with it: [none]; CHO chromosomal assay, maximum.
Data set [2] deals with HprCH3.3 G19S/HprCH3.4 heterodimer chain1: G19S,Y33H,42A,43L; chain2: S32T,Y33H,Q44R,R68Y,R70S,72T,D75N,I77N. The note with it: [none]; CHO chromosomal assay, maximum.
Data set [3] concerns HprCH3.3 G19S/HprCH3.4 G19S heterodimer chain1: G19S,Y33H,42A,43L; chain2: G19S,S32T,Y33H,Q44R,R68Y,R70S,72T,D75N,I77N. The settings on record: [none]; no LacZ+ foci.
Data set [4] deals with HprCH3.3/HprCH3.4 G19S heterodimer chain1: Y33H,42A,43L; chain2: G19S,S32T,Y33H,Q44R,R68Y,R70S,72T,D75N,I77N. The note with it: [none]; CHO chromosomal assay, maximum.
In data set [5] the test system is HBB5 H3/H4b heterodimer H3: 30S,33H,38R,44K,68Y,70S,77T; H4b: 24V,43L,44A,70S,75E,77R,80K,87L,96R. The note with it: [none]; yeast beta-galactosidase value.
Data set [6] concerns HBB5 H3 V105A I132V/H4a heterodimer H3: 30S,33H,38R,44K,68Y,70S,77T,V105A,I132V; H4a: 19S,32T,44A,70S,75E,77R,80K,96R. The note with it: [none]; yeast beta-galactosidase value.
The subject of data set [7] is HBB5 H3 V105A I132V/H4b heterodimer H3: 30S,33H,38R,44K,68Y,70S,77T,V105A,I132V; H4b: 24V,43L,44A,70S,75E,77R,80K,87L,96R. The note with it: [none]; yeast beta-galactosidase value.
The test system of data set [8] is HBB5 H3 I132V/H4b heterodimer H3: 30S,33H,38R,44K,68Y,70S,77T,I132V; H4b: 24V,43L,44A,70S,75E,77R,80K,87L,96R. The note with it: [none]; yeast beta-galactosidase value.
In data set [9] the test system is HBB5 H3 V105A/H4b heterodimer H3: 30S,33H,38R,44K,68Y,70S,77T,V105A; H4b: 24V,43L,44A,70S,75E,77R,80K,87L,96R. The note with it: [none]; yeast beta-galactosidase value.
Data set [10] deals with HBB5 H3 I132V/H4a heterodimer H3: 30S,33H,38R,44K,68Y,70S,77T,I132V; H4a: 19S,32T,44A,70S,75E,77R,80K,96R. The note with it: [none]; yeast beta-galactosidase value.
Data set [11] concerns HBB5 H3/H4a heterodimer H3: 30S,33H,38R,44K,68Y,70S,77T; H4a: 19S,32T,44A,70S,75E,77R,80K,96R. The note with it: [none]; yeast beta-galactosidase value.
For data set [12], the system named is HBB5 H3 V105A/H4a heterodimer H3: 30S,33H,38R,44K,68Y,70S,77T,V105A; H4a: 19S,32T,44A,70S,75E,77R,80K,96R. The note with it: [none]; yeast beta-galactosidase value.

A value given as a limit tells only on which side of the number the result lay.

Here are results for two sequences from patent US20100203031.

“TCGAGATGTCATGAAAGAGATGGA (double strand) [HprCH3]”: the activity (LacZ repair frequency) in data set [1] was 0.002; in data set [2], 0.0115; in data set [3], below 6e-06; in [4], 0.012.

With “TTGGTCTCCTTAAACCTGTCTTGA (double strand) [HBB5]”, the activity in data set [5] was 0.29; in data set [6] it was 0.77; in data set [7], 0.56; in data set [8], 0.37; in [9] it was 0.37; in data set [10], 0.49. Besides, the activity in data set [11] turned out to be 0.34; in data set [12] it was 0.47.
